# Measured values taken from the nanobody polyreactivity screen of Harvey et al. (2022).
# Test: yeast display, Sf9 membrane polyspecificity reagent, FACS + sequencing; frameworks hold sequencing errors
# Summary of the method: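 Genes from sorted yeast were amplified by colony PCR, read by MiSeq 2 × 250 sequencing and filtered on CDR length. These cells carried a synthetic nanobody library in Saccharomyces cerevisiae BJ5465 and were sorted by FACS into low and high (top ~1%) gates on anti-HA and streptavidin fluorescence. Polyreactivity is labelled according to the gate of origin.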
row,Sequence,polyreactivity (PSR sort gate)
1,QVQLVESGGGLDQAGGSLRLSSAASVSIFRYNTMGWYRPAPGKEREFVDSIRIGGSTYYADSVKGRFTISRDNAKNTVYLQMNSLKPEDTAVYYCAVRPYRSAGGSVTRGAYYYWGQGTQVTVSS,high polyreactivity
2,QVQLVESGGGLVQAGVSLRLSCAASGSSLARNAMGWYRQAPGKERELVAAISRRSGSTYYADSVKGRFTFSRDNAKNTVYLQMNSLKPEDTAVYYCAKLGIVHQYDYWGQGTQVTVSS,low polyreactivity
3,QVHLVESGGGLVQAGGSLRLSCPASGIIFVPNAMGWYRQAPGKEREFVAAISRSGTSTYYADSVKGRFTISRDNAKNTVYLQMNSLKPEDTAVYYCAKSAYRSYSAFGYWGQGTQVTVSS,high polyreactivity
4,QVQLVDSGGGLVQAGGSLRLSCAASGFTFADNAMGWYRQAPGKEREFVAAITWTADSTYYADSVKGRFTISRDNAKNTVYVQMNSLKPEDTAVYYCAASYSTIWTLYYYWGQGTQVTVSS,low polyreactivity
5,QVQLVESGGGLVQAGGSLRLSCAASGSILYIYAMGWYSQAPGKERELVASINSGGSTNYADSVKGRFTISRDNAKNTVYLQMNSLKPEDTAVYYCNADTIPDGEDRYDYWGQGTQVTVSS,low polyreactivity
6,QVQLVETGGGLVQAGGSLRLSCAASGRIFHRNAMGWYRQAPGKEREFVAGITTGSSTYYADSVKGRFTISRDNAKNTVYLQMNSLKPEDTAVYYCAARYFIGSYRPRFDYWGQGTQVTVSS,high polyreactivity
7,QVQLVQSGGGLVQAGGSLRLSCAASGFIFDTYTMGWYRQAPGKERQLVAAISRSGASTYYADSVKGRFTISRDNAKNTVYLQMNSLKPEDTAVYYCATVYYPSYRGGYDYWGQGTQVTVSS,high polyreactivity
8,QVQLVESGGGLVQAGGSLRLSCAASGSIFTQYAMGWYRQAPGKERELVAAISWTGGRTNYADSVKGRFTISRDTAKNTFYLQMNSLKPEDTSVYYCAATYLLRYCQGWKRMDYWGQGTQVTVSS,high polyreactivity
9,QVQLVESGGGLVQAGGSLRLSCAASGRTFPGNAMGWYRQAPGKERELVAAISWSGTRTYYADSVKGRFTISRDNAKHTVYLQMNSLKPEDTAVYYCNVVVKGAWDYYPYDYWGQGTQVTVSS,high polyreactivity
10,QVQLVESGGGLVQAGGSLRLSCAASGIIFAFYAMGWYRQAPGKERELVAAISIDGSTYYADSVKGRFTISRDNAKNTVYLQMNSLKPEDTAVYYCAAEGNGYLVSTWWVRYEYWGQGTQVTVSS,low polyreactivity
11,QVQLVESGGGLVQAGGSLRLTCAASGFIFPWNAMAWFRQAPRKERELVAAISFSGGSTYYADSVKGRFTISRDNAKNTVYLQMNSLKPEDTAVYYCAKRTWDLRRTRHYYWGQGTQVTVSS,low polyreactivity
12,QVQLVESGGGLVQAGGSLRLSCAASAFIFSGNAMGWNRQAPGKERELVAAISGRGGRTYYADSVKGRFTISRDNAKNTVYLQMNSLKPEDTAVYYCAADNPYLGRKFDYWGQGTQVTVSS,high polyreactivity
13,QFQLVESGGALVQAGGSLRLSCAASGLIFGRYAMGWYRQAPGNERELVAAISWRGGSTFYADSVKGRFTISRDNAKNTVYLQMNSLKPEDTAVYYCNARYYPARVRTYDHWGQGTQVTVSS,high polyreactivity
14,QVQLVESGGGLVQAGGSLRLSCAASGGTFTPYDMGWYRQAPGKERELVASITGSGGSTYYADSVKGRFTISRGNAKNTVYLQMNSLKPEDTAVYYCAAQGYWTYWPYLLRLYDYWGQGTQVTVSS,low polyreactivity
15,QVQLVESGGGLLQAGGSLRLSCAASGFTFTTYAMGWYRQAPGKERELVAAITRRGGSTYYADSVKGRFTISRDNAKNTVYFQMNSLKPEDTAVYYCAAGGGWGLDYWGQGTQVTVSW,high polyreactivity
16,QVQLVESGGGLVQAGGSLRLSCAASGRIFTYNAMGWYRQAPGKERELVAAITRGGTTNYADSVKGRFTISRDNAKNTVYLQMNSLKPEDTAVYYCARAGAHPWWSRSTMYYWGQGTQVTVSS,low polyreactivity
